Legend:
Experiment in all cases: cell-based or functional assay
[1] = molecular target: T1, human TPBG (full length, on cells) (human, UniProt Q13641 32-420)
T1 sequence (looked up): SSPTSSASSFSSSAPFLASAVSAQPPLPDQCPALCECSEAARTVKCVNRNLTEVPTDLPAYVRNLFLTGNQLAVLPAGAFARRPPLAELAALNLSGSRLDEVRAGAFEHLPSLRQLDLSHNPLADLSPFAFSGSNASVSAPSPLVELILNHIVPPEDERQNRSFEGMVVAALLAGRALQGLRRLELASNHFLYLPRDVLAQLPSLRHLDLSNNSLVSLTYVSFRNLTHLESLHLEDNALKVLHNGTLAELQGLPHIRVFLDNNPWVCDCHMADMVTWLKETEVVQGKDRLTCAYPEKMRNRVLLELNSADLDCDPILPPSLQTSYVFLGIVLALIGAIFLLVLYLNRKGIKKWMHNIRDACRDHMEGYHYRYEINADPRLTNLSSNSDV

[2] = molecular target: T1, human TPBG (full length, on cells); remark: listed apart in the source
[3] = molecular target: T1, human TPBG (full length, on cells); remark: listed apart in the source

B1: 12B12C7C3-MMAF (antibody, DAR 8, V domains shown)
VH: DVQLVESGGGLVQPGGSRKLSCAASGFTFSNFGMHWVRQAPEKGLEWVAYISSGSTSFYYADTVKGRFTISRDNPKNTLFLQMTSLRSEDTAMYYCSRTNSLLRGFFDAWGAGTTVTVSS
VL: DIVLTQSPASLAVSLGQRATISCRASQSVSSSSYTYLHWYQQKPGQPPKLLIKSASNLESGVPARFSGTGSGTDFTLNIHPVEEEDTATYYCQHSWEIPLTFGAGTKLELK
modifications: MC-MMAF on cysteines after TCEP reduction, sites not stated
- EC50 of cytotoxicity on TPBG-positive NCI-H1568 cells (CellTiter-Glo) [1]: 0.042 nM

B2: Chimeric Antibody 12B12 (antibody, V domains shown)
VH: DVQLVESGGGLVQPGGSRKLSCAASGFTFSNFGMHWVRQAPEKGLEWVAYISSGSTSFYYADTVKGRFTISRDNPKNTLFLQMTSLRSEDTAMYYCSRTNSLLRGFFDAWGAGTTVTVSS
VL: DIVLTQSPASLAVSLGQRATISCRASQSVSSSSYTYLHWYQQKPGQPPKLLIKSASNLESGVPARFSGTGSGTDFTLNIHPVEEEDTATYYCQHSWEIPLTFGAGTKLELK
- IC50 of cytotoxicity on recombinant 293-hTPBG cells (CellTiter-Glo) [2]: 13.6 nM

B3: Chimeric Antibody 12B12-MMAE (antibody, human IgG1, DAR about 3, V domains shown)
VH: DVQLVESGGGLVQPGGSRKLSCAASGFTFSNFGMHWVRQAPEKGLEWVAYISSGSTSFYYADTVKGRFTISRDNPKNTLFLQMTSLRSEDTAMYYCSRTNSLLRGFFDAWGAGTTVTVSS
VL: DIVLTQSPASLAVSLGQRATISCRASQSVSSSSYTYLHWYQQKPGQPPKLLIKSASNLESGVPARFSGTGSGTDFTLNIHPVEEEDTATYYCQHSWEIPLTFGAGTKLELK
modifications: MC-VC-PAB-MMAE on cysteines after TCEP reduction, sites not stated
- IC50 of cytotoxicity on recombinant 293-hTPBG cells (CellTiter-Glo) [2]: 0.033 nM
- IC50 of cytotoxicity on TPBG-positive NCI-H1299 cells (CellTiter-Glo) [3]: > 100 nM
- IC50 of cytotoxicity on TPBG-positive NCI-H1568 cells (CellTiter-Glo) [3]: > 100 nM

B4: Chimeric Antibody 12B12-DM1 (antibody, human IgG1, DAR about 3, V domains shown)
VH: DVQLVESGGGLVQPGGSRKLSCAASGFTFSNFGMHWVRQAPEKGLEWVAYISSGSTSFYYADTVKGRFTISRDNPKNTLFLQMTSLRSEDTAMYYCSRTNSLLRGFFDAWGAGTTVTVSS
VL: DIVLTQSPASLAVSLGQRATISCRASQSVSSSSYTYLHWYQQKPGQPPKLLIKSASNLESGVPARFSGTGSGTDFTLNIHPVEEEDTATYYCQHSWEIPLTFGAGTKLELK
modifications: SMCC-DM1, sites not stated
- IC50 of cytotoxicity on recombinant 293-hTPBG cells (CellTiter-Glo) [2]: 0.154 nM
- IC50 of cytotoxicity on TPBG-positive NCI-H1299 cells (CellTiter-Glo) [3]: 10.4 nM
- IC50 of cytotoxicity on TPBG-positive NCI-H1568 cells (CellTiter-Glo) [3]: 1.27 nM

B5: 36A10D8B12-MMAF (antibody, DAR 8, V domains shown)
VH: DVQLQESGPGMVKPSQSLSLTCTVTGYSITSGYDWHWIRHFPGNKLEWMGYISYSGNTNYNPSLKSRISITHNTSKNHFFLRLNSVTTEDTATYYCARGYGNWDAMDYWGQGTSVTVSS
VL: DIVMTQSQKFMSTSVGDRVSVTCKASQIVDTNVAWYQQKPGQSPKALISSASYRYSGVPDRFTGSGSGTDFTLTISNVQSEDLAEYFCQQYNSYPLTFGAGTKLELT
modifications: MC-MMAF on cysteines after TCEP reduction, sites not stated
- EC50 of cytotoxicity on TPBG-positive NCI-H1568 cells (CellTiter-Glo) [1]: 0.066 nM

B6: 39A11G5F2-MMAF (antibody, DAR 8, V domains shown)
VH: QVQLQQSGAELMKPGASMRLSCKATGYTFTGYWLEWIKRRPGHGLEWIGEILPGRGSTNYNEKFKGKATFTAETSSNTAYMQLTSLTTEDSAIYYCARGGRDFDNWGQGTTLTVSS
VL: DIQMTQSTSSLSASLGDRVTISCSASQGINNHLNWYQQKPDGTVKLLIYYTSSLHSGVPSRFSGSGSGTDYSLTISNLEPEDIAIYYCQQFSKLPYTFGGGTKVEMK
modifications: MC-MMAF on cysteines after TCEP reduction, sites not stated
- EC50 of cytotoxicity on TPBG-positive NCI-H1568 cells (CellTiter-Glo) [1]: 0.285 nM

B7: 52C9E9F6-MMAF (antibody, DAR 8, V domains shown)
VH: QVQLQQSGAELMKPGASVKLSCKATGYTFTGYWIEWIKQRPGHGLEWIGEILPGRGSTDYNEKFKGKATFTADTSSNTAYMQLSSLTTEDSAIYYCTRGRLDFTYWGQGTLVTVSA
VL: DIQMTQTTSSLSASLGDRVTISCSASQGIRNYLNWYQQKPDGTVKLLIYYTSSLHSGVPSRFSGSGSGTDYSLTISNLEPEDIATYYCQQYSKVPWTFGGGTKLEIK
modifications: MC-MMAF on cysteines after TCEP reduction, sites not stated
- EC50 of cytotoxicity on TPBG-positive NCI-H1568 cells (CellTiter-Glo) [1]: 1.49 nM

B8: 103E2E9C2-MMAF (antibody, DAR 8, V domains shown)
VH: EVQLQQSGPVLVKPGASVKMSCEASGYSFIDYYMSWVKQSRGRSLEWIGVFNPYSGEIIYNQKFKGKATLTVDKSSSTAYMELSSLTSEDSGVYSCARLRISYYAIDYWGQGTSVAVSS
VL: ENVLTQSPAIMSASPGEKVTMTCRATSSVSSGHFHWYQQKSGASPKVWIYSTSNLASGVPARFSGSGSGTSFSLTISSVEAEDVATYFCQQYSGYPLTFGGGTKLEIK
modifications: MC-MMAF on cysteines after TCEP reduction, sites not stated
- EC50 of cytotoxicity on TPBG-positive NCI-H1568 cells (CellTiter-Glo) [1]: 0.135 nM

B9: 5G4H10G5-MMAF (antibody, DAR 8, V domains shown)
VH: EVQLVESGGDLVQPGGSLKLFCAASGFTFSTYGLSWVRQTPDKRLELVATITNNDGSAYYPDSVKGRFTISRDKAKNTLFLQMTSLKSEDTAMYYCARETGFGSSYLFDYWGQGTLVTVSA
VL: NIVMTQTPKFLLVSAGDRVTITCKASQSVSNDVAWYQQKPGQSPKLLIYFATNRYTGVPNRFTGSGYGTEFTFTISSVQAEDLAVYFCQQDYSSPTFGGGTKLEIK
modifications: MC-MMAF on cysteines after TCEP reduction, sites not stated
- EC50 of cytotoxicity on TPBG-positive NCI-H1568 cells (CellTiter-Glo) [1]: 0.626 nM

B10: Chimeric Antibody 28D4 (antibody, V domains shown)
VH: DVQLVESGGGLVRPGGSLKLSCAASGFTFSNYVMSWARQSPEKRLEWVAEISTGGSHTYYSDTVTGRFTISRDNAKKALYLEMSSLRSEDTAIYYCIMFYYGSSYSMDYWGQGTSVTVSS
VL: DIQMTQSTSSLSASLGDRITISCRASQDIRNYLNWYQQKPDGTVKLLIYHTSRLHSGVPSRFSGSGSGTDYSLTISNLEQEDIATYFCQQGDTLPLTFGAGTRLELK
- IC50 of cytotoxicity on recombinant 293-hTPBG cells (CellTiter-Glo) [2]: 1.14 nM

B11: 28D4E6A9-MMAF (antibody, DAR 8, V domains shown)
VH: DVQLVESGGGLVRPGGSLKLSCAASGFTFSNYVMSWARQSPEKRLEWVAEISTGGSHTYYSDTVTGRFTISRDNAKKALYLEMSSLRSEDTAIYYCIMFYYGSSYSMDYWGQGTSVTVSS
VL: DIQMTQSTSSLSASLGDRITISCRASQDIRNYLNWYQQKPDGTVKLLIYHTSRLHSGVPSRFSGSGSGTDYSLTISNLEQEDIATYFCQQGDTLPLTFGAGTRLELK
modifications: MC-MMAF on cysteines after TCEP reduction, sites not stated
- EC50 of cytotoxicity on TPBG-positive NCI-H1568 cells (CellTiter-Glo) [1]: 0.038 nM

B12: 37H9C5G2-MMAF (antibody, DAR 8, V domains shown)
VH: QVQLQQSDAELVRPGASVKMSCKVSGYTFTDHTIHWMKQRPEQGLEWIGYIYPRDGSGTYNEKFKGKATLTADKSSSTAYMQLNSLTSEDSAVYFCARDGSSHYWYFDVWGTGTTVTVSS
VL: DIQMTQSPASLSASVGETVTITCRASEIIYNYLAWYQQKQGKSPQLLVYNAKTLAEGVPSRFSGSYSGTQFSLNINSLQSEDFGIYYCQHHHDTPLTFGAGTKLDLK
modifications: MC-MMAF on cysteines after TCEP reduction, sites not stated
- EC50 of cytotoxicity on TPBG-positive NCI-H1568 cells (CellTiter-Glo) [1]: 0.12 nM

B13: 99E12C7H1-MMAF (antibody, DAR 8, V domains shown)
VH: QIQLVQSGPELKKPGETVKISCKPSGYTFTAYGLSWVKQAPGQGFQWMGWINTYSGVPTYTDDFKGRFAFSLETSAGTASLQITNLKNEDTATYFCARSSIPPFEYWGPGTTLTVSS
VL: SFVMTQSPKFLLVSVGDRVTITCKASQSVSNDVAWYQQKPGQPPRVLIYFASNRYTGVPDRFTGSGYGTDFTFTISTVQAEDLALYFCQQDYSSPWTFGGGTKLEIK
modifications: MC-MMAF on cysteines after TCEP reduction, sites not stated
- EC50 of cytotoxicity on TPBG-positive NCI-H1568 cells (CellTiter-Glo) [1]: 0.844 nM

B14: 106D5G3D10-MMAF (antibody, DAR 8, V domains shown)
VH: EVQLVESGGGLVKPGGSLKLSCAASGFTFSDYGMHWVRQAPEKGLEWVGYISSGTYVVYYADTVKGRFTISRDNAKNTLFLQMTSLRSEDTAIYYCSTYGSNPFDYWGQGTTLTVSS
VL: QLVLTQSPAIMSASPGEKVTITCSATSSVSSMHWFQQKPVTSPKLWIYSTSNLASGVPTRFSGSGSGTSYSLTISRMEAEDAATYYCQQRSGYPPIFTFGSGTKLEIK
modifications: MC-MMAF on cysteines after TCEP reduction, sites not stated
- EC50 of cytotoxicity on TPBG-positive NCI-H1568 cells (CellTiter-Glo) [1]: 0.208 nM
